In the supplement of paper PMC7125110:
± gives the standard error. Variants at the floor of the assay were thinned out.

B1: glmS ribozyme (parent)
chain: AUAAAAGCGCCAGAACUACAGAAAUGUAGUUGACGAGGAGGAGGUUUAUCGAAUUUUCGGCGGAUGCCUCCAAA

Variants of: B1
Experiment: self-cleavage kobs at 2500 uM GlcN6P; higher = faster cleavage; RNA array
Details: with glucosamine-6-phosphate
Procedure, shortened: (§1)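 Glucosamine-6-phosphate, from 40 μM to 10 mM in HEPES/KCl/Mg(OAc)2 buffer, was flowed over sequenced MiSeq chips carrying barcoded ribozyme variants transcribed in situ by E. coli RNA polymerase. A hybridised Cy3 probe tracked the variants at 37 °C as tiles were imaged over ~14 h. kobs, kcat and KM were obtained by fitting normalised per-tile medians to exponential decays and then applying weighted Michaelis–Menten fits across concentrations.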

Variant	self-cleavage kobs at 2500 uM GlcN6P [s⁻¹]
G41U U55C C61G	< 1e-05
U30C G43A U46G C67U	< 1e-05
U30G G32U	0.000223 ± 6.5e-05
A33C G35U U57C	< 1e-05
C8A G32U G37U	< 1e-05
A14C A15G C16U	4.99e-05 ± 1.9e-05
G9A A33G G43C	< 1e-05
C10A G51A G66A C68A C70A	7.81e-05 ± 3.1e-05
A6C G38U A42G U57C	< 1e-05
G29U U31C U54C	0.000161 ± 3.5e-05
A6G U31C A36G A42U	< 1e-05
C16G G29C A53U	0.00684 ± 0.0022
U2C C61G	< 1e-05
G37U G44U C58A C71A	< 1e-05
C8U A14G C50U C71G	< 1e-05
C34U U46G G66U	< 1e-05
G38C U49C U57A U65G C70G	< 1e-05
G7A C50G G63C	0.000242 ± 7.3e-05
A14U U57A A64G	3.21e-05 ± 1.3e-05
A36G G60U G63A C68A	< 1e-05
A6C A33U G37C A42U A48C U56A G59U C68G	< 1e-05

Variant	self-cleavage kobs at 2500 uM GlcN6P [s⁻¹]
G7U A33C G59U G60U	< 1e-05
G13U U47A C50U	< 1e-05
G13C A15G C58A	5.1e-05 ± 1.5e-05
A12U G13A G38U	< 1e-05
G9A C10U U30A G44A	< 1e-05
A15C U57A C67G	5.01e-05 ± 2.4e-05
C10G A15G C34A G37A	< 1e-05
G7U G44U A53U	< 1e-05
G29C U54G C68A C71G	9.33e-05 ± 4.3e-05
C8A G13U A53G U65G	< 1e-05
C34A C50U C67A	< 1e-05
U56A G59A	5.17e-05 ± 1.7e-05
A6G G38A C50G U57G C68U	8.04e-05 ± 1.4e-05
G7U A12G U69A	< 1e-05
C10A C11A A39C	< 1e-05
A6C A12G A53U	< 1e-05
C8A C10U A39G U57C	< 1e-05
C10G C11G G13U U69C C70G	< 1e-05
G13U G51C U57A C71A	< 1e-05
G7A A14G G38A	< 1e-05
U47A A64U C67G	< 1e-05

Variant	self-cleavage kobs at 2500 uM GlcN6P [s⁻¹]
G9U G41A C67U	< 1e-05
A6C C16G U45G G59U	< 1e-05
A15G U55A A64U	9.74e-05 ± 1.8e-05
C11G A33U U46G G51C U54A	< 1e-05
C10A A64C C67G	8.61e-05 ± 3.1e-05
A12U C34A G35A U49G	< 1e-05
C8U G43U G62C C68U	< 1e-05
G29C C58G G59C C61A G63A	< 1e-05
C11G A12C G38U C50U	< 1e-05
C11U G40A U49C G59C	< 1e-05
A15G G32C G37U C70A	0.000633 ± 0.00028
A6G A36C U55C	< 1e-05
A52U A53U G62A U65G C71G	< 1e-05
A42U U47G U69A	0.0115 ± 0.0021
U31G G37A C67U	5.28e-05 ± 1.6e-05
C16G G29C U31G	0.00447 ± 0.00064
C11G G13A G44A	< 1e-05
C50G U55C	3.57e-05 ± 1.6e-05
G13U A14G A36G U55A	< 1e-05
C16U G38A G66A	< 1e-05
C16G A42G A64U G66A C68A	< 1e-05

Variant	self-cleavage kobs at 2500 uM GlcN6P [s⁻¹]
A12U C34U G38A C50G	0.000122 ± 3e-05
A33U C34G A36U C67U	< 1e-05
A53U C58G C61G C71G	0.000415 ± 0.00016
A14U A15U G40U	0.000122 ± 3.7e-05
C10U A42C G62A U65G C68U	< 1e-05
G44C G62A C68G	< 1e-05
C16A U31C C70A	< 1e-05
C11U A64U C68U C71U	< 1e-05
U47A U56G C68A	7.37e-05 ± 3.6e-05
U54A A64G C70A	0.000536 ± 0.00018
A42U U45A U49G	< 1e-05
G7U A14C U56C	< 1e-05
A12U A42G A64U	6.81e-05 ± 2.1e-05
U31C U49C U65G	< 1e-05
G7U G43C A53U A64G	< 1e-05
A12G G59U G60U U65G	< 1e-05
A6U A36C C67G	< 1e-05
C8G C11A A33U G44A C58U	< 1e-05
G7A A12G A15U G44U U45A A53C	< 1e-05
U30A G32C	6.18e-05 ± 2.8e-05

Variants of: B1
Experiment: self-cleavage kobs at 10000 uM GlcN6P; higher = faster cleavage; RNA array
Details: with glucosamine-6-phosphate
Procedure, shortened: as §1

Variant	self-cleavage kobs at 10000 uM GlcN6P [s⁻¹]
U30G G32U	0.000612 ± 0.00015
G13C A15G C58A	0.000154 ± 2.6e-05
U56A G59A	4.86e-05 ± 9.7e-06
U31G G37A C67U	0.000189 ± 3.7e-05
A14U A15U G40U	0.000149 ± 2.6e-05
U30A G32C	0.000203 ± 5.8e-05
